We go through 23 molecules from patent US12012457 (SYNTHEKINE, dated 2024).

The labels stand for the following.
T1: extracellular domain of human IL23R (hIL23R ECD) (human, UniProt Q5VWK5 24-355)
T1 construct: also called hIL-23 ECD antigen
T1 sequence: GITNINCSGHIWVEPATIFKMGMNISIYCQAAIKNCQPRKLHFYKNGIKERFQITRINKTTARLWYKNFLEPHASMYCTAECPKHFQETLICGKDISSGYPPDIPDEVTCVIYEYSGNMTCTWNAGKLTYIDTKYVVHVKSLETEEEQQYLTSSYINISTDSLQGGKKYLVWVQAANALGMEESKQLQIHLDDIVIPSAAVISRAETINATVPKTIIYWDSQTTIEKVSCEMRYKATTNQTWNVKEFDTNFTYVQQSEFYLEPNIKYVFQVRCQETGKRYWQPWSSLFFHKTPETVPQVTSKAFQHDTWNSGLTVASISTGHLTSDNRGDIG

T2: extracellular domain of mouse IL23R (mIL23R ECD) (mouse, UniProt Q8K4B4 24-374)
T2 construct: also called mIL-23 ECD antigen
T2 sequence: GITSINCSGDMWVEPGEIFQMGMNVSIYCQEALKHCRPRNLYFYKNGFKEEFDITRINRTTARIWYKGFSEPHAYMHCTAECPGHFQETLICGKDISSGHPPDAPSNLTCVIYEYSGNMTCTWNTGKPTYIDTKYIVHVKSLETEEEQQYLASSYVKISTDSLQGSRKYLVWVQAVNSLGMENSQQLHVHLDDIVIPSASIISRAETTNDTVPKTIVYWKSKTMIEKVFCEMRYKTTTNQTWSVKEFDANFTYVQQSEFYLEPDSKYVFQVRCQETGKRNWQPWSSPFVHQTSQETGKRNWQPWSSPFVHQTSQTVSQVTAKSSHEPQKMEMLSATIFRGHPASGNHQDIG

B1: hIL23R VHH1 (VHH)
VHH: QVQLQESGGGSVQAGGSLRLSCAASGYTYCSYDMSWYRQAPGKKREFVSAFNSDGTTSYADSVKGRFTISQDKAKNTVYLQMNSLKPEDTAMYYCKTDPHVQSSGGYCPPYWGQGTQVTVSS
B2: hIL23R VHH5 (VHH)
VHH: QVQLQESGGGSVQAGGSLRLSCAASGYTYCSYDMSWYRQAPGKKREFVSAIASDGSTSYADSLKGRFTISQDNAKNTVYLQMNSLKPEDTAMYYCKTDPHVQSSGGYCPPYWGQGTQVTVSS
B3: hIL23R VHH12 (VHH)
VHH: QVQLQESGGGSVQAGGSLRLSCAASGYTSSSRCMGWFRQAPGKEREGVARIYTPTRTTWYADSVKGRFTISQDNAKNTVYLEMASLKPEDTAKYFCAAGASCAVDLFSYWGQGTQVTVSS
B4: hIL23R VHH10 (VHH)
VHH: QVQLQESGGGSVQAGGSLKLSCAASGYTYCNYDIAWYRQAPGKERKFVSAIASDGSTSYADSVKGRFTISQDNAKNTVYLQMNSLKPEDTAMYYCKTDPIATMTRRCDPYWGQGTQVTVSS
B5: hIL23R VHH7 (VHH)
VHH: QVQLQESGGGSVQAGGSLRLSCAASGYTYCNYDIAWYRQAPGKERKFVSAIASDGITSYADSVKGRFTISQDNAKNTVYLQMNSLKPEDTAMYYCKTDPISTITRICDPYWGQGTQVTVSS
B6: hIL23R VHH11 (VHH)
VHH: QVQLQESGGGSVQAGGSLRLSCAASGYTYCSYDMTWYRQAPGKKREFVSAIDSDGSTSYADSVKGRFTISQDNAKNTVYLQMNSLKPEDTAMYYCKTDPIATISRRCDSYWGQGTQVTVSS
B7: hIL23R VHH16 (VHH)
VHH: QVQLQESGGGSVEAGGALTLSCVASGYTYCNYDIAWYRQAPGKERKFVSAIASDGSTSYADSVKGRFTISQDNAKNTVYLQMNSLKPEDTAMYYCKTDPIATMTRRCDPYWGQGTQVTVSS
B8: hIL23R VHH18 (VHH)
VHH: QVQLQESGGGSVQAGGSLRLACAASGYTYCNYDIAWYRQAPGKERKFVSAIASDGSTSYADSVKGRFTISQDNAKNTVYLQMNSLKPEDTAMYYCKTDPIATMTRRCDPYWGQGTQVTVSS
B9: hIL23R VHH13 (VHH)
VHH: QVQLQESGGGSVQAGGSLRLSCAASGYTYCSYDMKWYRQAPGKKREFVSAIDSDGSTSYADSVKGRFTISQDNAKNTVYLQMNSLKPEDTAMYYCKTEGTIPVGVCPNYWGQGTQVTVSS
B10: hIL23R VHH14 (VHH)
VHH: QVQLQESGGGLVQPGGSLRLSCAASGYTYCSYDMKWYRQAPGKKREFVSAIDSDGSTSYADSVKGRFTISQDNAKNTVYLQMNSLKPEDTAMYYCKTEGTVPVGVCPNYWGQGTQVTVSS
B11: hIL23R VHH8 (VHH)
VHH: QVQLQESGGDSVQAGGSLRLSCAASGYTYCSYDMKWYRQAPGKEREFVSGIDSDGSISYADSVKGRFTISQDNAKNTVYLQMNSLKPEDTAMYYCKTEGTIPVGACPNYWGQGTQVTVSS
B12: hIL23R VHH15 (VHH)
VHH: QVQLQESGGGSVQAGGSLRLSCAASPGTYTSRYMGWFRQAPGKEREGVATIWPAGGNTVYADSVKGRFTISQDGAKKTVYLQMNSLKPEDTAMYYCAAAKYGGTSLAPYTYNYWGQGTQVTVSS
B13: mIL23R VHH7 (VHH)
VHH: QVQLQESGGGLVQPGGSLRLSCAASGFTFSRSAMTWVRQAPGKGLDWVSGIDSGGTTVYADSVKGRFTISRDSAKNTLYLQMNSLKTEDTAVYYCAIGLPWGNTWRTRGQGTQVTVSS
B14: mIL23R VHH20 (VHH)
VHH: QVQLQESGGGLVQPGGSLRLSCAASGFTFSSSAMTWVRQAPGKGLDWVSGIDSGGTTVYADSVKGRATILKDNAKNTLYLQMNSLKTEDTAVYYCATGLPWGNTWRTRGQGTQVTVSS
B15: mIL23R VHH41 (VHH)
VHH: QVQLQESGGGLVQPGGSLRLTCAASGFTFSTSAMTWVRQAPGKGLDWVSGIDSGGTTVYADSVKGRFTISKDNAKNTLYLQMNSLKTEDTAVYYCATGLPWGNTWRTRGQGTQVTVSS
B16: mIL23R VHH39 (VHH)
VHH: QVQLQESGGGLVQPGGSLRLSCAASGFTFSRSAMTWVRQAPGKGLDWVSGIDSGGTTVYADSVKGRFTISRDSAKNTLYLQMNGLKTEDTAVYYCAIGLPWGNTWRTRGQGTQVTVSS
B17: mIL23R VHH37 (VHH)
VHH: QVQLQESGGGLVQPGGSLRLSCATSGFTFSSGAMTWVRQAPGKGLDWVSGIDSGGTTVYADSVKGRFTISKDNAKNTLYLQMNSLKTEDTAVYYCATGLPWGNTWRTTGQGTQVTVSS
B18: mIL23R VHH38 (VHH)
VHH: QVQLQESGGGLVQPGGSLRLSCAASGFTFSTSAMTWVRQAPGKGLDWVSGIDSGGTTVYADSVKGRFTISKDNAKNTLYLQMNSLKTEDTAVYYCATGLPWGNIWRTRGQGTQVTVSS
B19: mIL23R VHH21 (VHH)
VHH: QVQLQESGGGLVQPGGSLRLSCATSGFTFSSSAMTWVRQAPGKGLDWVSGIDSGGTTVYADSVKGRFTISKDNAKNTLYLQMNSLKTEDTAVYYCATGLPWGNTWRTTGQGTQVTVSS
B20: mIL23R VHH32 (VHH)
VHH: QVQLQESGGGLVRPGGSLRLSCAASGFTFSRSAMTWVRQAPGKGLDWVSGIDSGGTTVYADSVKGRFTISRDSAKNTLYLQMNSLKTEDTAVYYCAIGLPWGNTWRTRGQGTQVTVSS
B21: mIL23R VHH35 (VHH)
VHH: QVQLQESGGGLVQPGGSLRLACSASGFTFSSSAMTWVRQAPGKGLDWVSGIDSGGTTVYADSVKGRATILKDNAKNTLYLQMNSLKTEDTAVYYCATGLPWGNTWRTRGQGTQVTVSS
B22: mIL23R VHH33 (VHH)
VHH: QVQLQESGGGLVQPGGSLRLSCTTSGFTFSSSAMTWVRQAPGKGLDWVSGIDSGGTTVYADSVKGRFTISKDNAKNTLYLQMNSLKTEDTAVYYCATGLPWGNTWRTTGQGTQVTVSS
B23: mIL23R VHH14 (VHH)
VHH: QVQLQESGGGLVQPGGSLRLSCAASGFTFRTSAMTWVRQAPGKGLDWVSGIDSGGTTVYADSVKGRFTISRDSAKNTLYLQMNSLKTEDTAVYYCAMGLPWGNTWRTRGQGTQVTVSS

For one experiment, the target named is T1, extracellular domain of human IL23R …. Put plainly: periplasmic extract ELISA (PE-ELISA), 96-well plate, colorimetric.
As for B1, the binding result is reported as “binds”. On to B2, for which the binding result is given as “binds”. Same read-out and setting: with B3 the entry was “binds”.

On to B4, for which the binding result is “binds”.

With B5, the binding result is recorded as “binds”. Still for that read-out and setting: the value for B6 was “binds”. Take B7: the binding result is “binds”. Still for that read-out and setting: the value for B8 was “binds”; that for B9 was “binds”; that for B10 was “binds”. The same measure, in the same setting: the value for B11 was “binds”; that for B12 was “binds”.

A further experiment concerns the target T2, extracellular domain of mouse IL23R …. The description is as above.
B13: the binding result is reported as “binds”.

B14: the binding result is on record as “binds”.

Take B15: the binding result is “binds”. On the same count and under the same terms, with B16 the entry was “binds”. For B17, the binding result was “binds”. Still for that read-out and setting: with B18 the entry was “binds”. For the molecule B19, the binding result was “binds”. The same measure, in the same setting: the value for B20 was “binds”; that for B21 was “binds”; that for B22 was “binds”.

As to B23, the binding result is recorded as “binds”.
